Source: paper PMC8005835

Target: Von Willebrand factor (VWF) (human) (UniProt P04275)
Assay: specific fVIII activity of the purified complex; heparin-Sepharose purified starting material, VWF 0.54 mg/ml and fVIII activity 38 U/ml (one-stage coagulation assay); mass ratio worked out with a cited specific activity of fVIII of ~5000 U/mg

blood coagulation factor VIII (fVIII) (natural protein)
percentage mass ratio of fVIII to VWF: 1%
